How the values were obtained:
[1] = target: anti-CRP antibody (R&D Systems, Inc., Human C-Reactive protein Antibody, Monoclonal Mouse IgG2B, MAB17071-500); assay: SPR Biacore T200; anti-CRP antibody 100 µg/mL fed over protein A/G held on anti-BSA antibody (Example 15)
[2] = target: anti-biotin antibody (Abcam plc., ab53494, Rabbit polyclonal); assay: SPR Biacore T200; protein A/G 100 µg/mL fed over anti-biotin antibody on the chip (Example 5)
[3] = target: anti-streptavidin antibody (R&D Systems, Inc., Streptavidin Antibody, Recombinant Monoclonal Rabbit IgG Clone #1220C, MAB9020); assay: SPR Biacore T200; protein A/G (six domains) 100 µg/mL fed over anti-streptavidin antibody on the chip (Example 14)
[4] = target: anti-biotin antibody (Abcam plc., ab53494, Rabbit polyclonal); assay: SPR Biacore T200; protein A/G 100 µg/mL fed over anti-biotin antibody on the chip (Example 1)
[5] = target: anti-BSA antibody (Bioss Inc., bs-0292R, polyclonal antibody); assay: SPR Biacore T200; protein A/G (six domains) 100 µg/mL fed over anti-BSA antibody on the chip (Example 16)
[6] = target: anti-CRP antibody (R&D Systems, Inc., Human C-Reactive protein Antibody, Monoclonal Mouse IgG2B, MAB17071-500); assay: SPR Biacore T200; anti-CRP antibody 100 µg/mL fed over protein A/G held on anti-mPEG antibody (Example 10)
[7] = target: anti-biotin monoclonal antibody (Abcam plc., ab36406, Mouse monoclonal); assay: SPR Biacore T200; protein A/G (six domains) 25 µg/mL fed over anti-biotin monoclonal antibody on the chip (Example 7)
[8] = target: anti-biotin monoclonal antibody (Abcam plc., ab36406, Mouse monoclonal); assay: SPR Biacore T200; protein A/G (six domains) 100 µg/mL fed over anti-biotin monoclonal antibody on the biotin-PEG chip (Example 13)
[9] = target: anti-BSA antibody (Bioss Inc., bs-0292R, polyclonal antibody); assay: SPR Biacore T200; protein A/G (six domains) 100 µg/mL fed over anti-BSA antibody on the chip (Example 15)
[10] = target: anti-biotin antibody (Abcam plc., ab53494, Rabbit polyclonal); assay: SPR Biacore T200; protein A/G 100 µg/mL fed over anti-biotin antibody on the chip (Example 3)
[11] = target: anti-adiponectin antibody (R&D Systems, Inc., Human Adiponectin/Acrp30 Antibody, Monoclonal Mouse IgG2B, MAB10651); assay: SPR Biacore T200; anti-adiponectin antibody 100 µg/mL fed over protein A/G held on the first antibody (Example 4)
[12] = target: anti-mPEG monoclonal antibody (Abcam plc., ab51257, Mouse monoclonal, Anti-Polyethylene glycol antibody [PEG-B-47]); assay: SPR Biacore T200; protein A/G (six domains) 101 µg/mL fed over anti-mPEG antibody on the mPEG chip (Example 9)
[13] = target: anti-CRP antibody (R&D Systems, Inc., Human C-Reactive protein Antibody, Monoclonal Mouse IgG2B, MAB17071-500); assay: SPR Biacore T200; anti-CRP antibody 100 µg/mL fed over protein A/G held on anti-biotin antibody (Example 12)
[14] = target: anti-biotin antibody (Abcam plc., ab53494, Rabbit polyclonal); assay: SPR Biacore T200; protein A/G 100 µg/mL fed over anti-biotin antibody on the chip (Example 4)
[15] = target: anti-mPEG monoclonal antibody (Abcam plc., ab51257, Mouse monoclonal, Anti-Polyethylene glycol antibody [PEG-B-47]); assay: SPR Biacore T200; protein A/G (six domains) 1,000 µg/mL fed over anti-mPEG antibody on the mPEG chip (Example 10)
[16] = target: anti-CRP antibody (R&D Systems, Inc., Human C-Reactive protein Antibody, Monoclonal Mouse IgG2B, MAB17071-500); assay: SPR Biacore T200; anti-CRP antibody 100 µg/mL fed over protein A/G held on anti-streptavidin antibody (Example 14)
[17] = target: anti-adiponectin antibody (R&D Systems, Inc., Human Adiponectin/Acrp30 Antibody, Monoclonal Mouse IgG2B, MAB10651); assay: SPR Biacore T200; anti-adiponectin antibody 100 µg/mL fed over protein A/G held on the first antibody (Example 5)
[18] = target: anti-BSA antibody (Bioss Inc., bs-0292R, polyclonal antibody); assay: SPR Biacore T200; protein A/G (six domains) 100 µg/mL fed over anti-BSA antibody on the chip (Example 17)
[19] = target: anti-CRP antibody (R&D Systems, Inc., Human C-Reactive protein Antibody, Monoclonal Mouse IgG2B, MAB17071-500); assay: SPR Biacore T200; anti-CRP antibody 100 µg/mL fed over protein A/G held on the first antibody (Example 7)
[20] = target: anti-biotin antibody (Abcam plc., ab53494, Rabbit polyclonal); assay: SPR Biacore T200; protein A/G 100 µg/mL fed over anti-biotin antibody on the chip (Example 2)
[21] = target: anti-biotin monoclonal antibody (Abcam plc., ab36406, Mouse monoclonal); assay: SPR Biacore T200; protein A/G (six domains) 100 µg/mL fed over anti-biotin monoclonal antibody on the biotin-PEG chip (Example 12)
[22] = target: anti-CRP antibody (R&D Systems, Inc., Human C-Reactive protein Antibody, Monoclonal Mouse IgG2B, MAB17071-500); assay: SPR Biacore T200; anti-CRP antibody 100 µg/mL fed over protein A/G held on anti-mPEG antibody (Example 9)
[23] = target: anti-CRP antibody (R&D Systems, Inc., Human C-Reactive protein Antibody, Monoclonal Mouse IgG2B, MAB17071-500); assay: SPR Biacore T200; anti-CRP antibody 100 µg/mL fed over protein A/G held on anti-BSA antibody (Example 17)
[24] = target: anti-adiponectin antibody (R&D Systems, Inc., Human Adiponectin/Acrp30 Antibody, Monoclonal Mouse IgG2B, MAB10651); assay: SPR Biacore T200; anti-adiponectin antibody 100 µg/mL fed over protein A/G held on the first antibody (Example 3)
[25] = target: anti-adiponectin antibody (R&D Systems, Inc., Human Adiponectin/Acrp30 Antibody, Monoclonal Mouse IgG2B, MAB10651); assay: SPR Biacore T200; anti-adiponectin antibody 100 µg/mL fed over protein A/G held on the first antibody (Example 1)
[26] = target: anti-CRP antibody (R&D Systems, Inc., Human C-Reactive protein Antibody, Monoclonal Mouse IgG2B, MAB17071-500); assay: SPR Biacore T200; anti-CRP antibody 100 µg/mL fed over protein A/G held on anti-BSA antibody (Example 16)
[27] = target: anti-adiponectin antibody (R&D Systems, Inc., Human Adiponectin/Acrp30 Antibody, Monoclonal Mouse IgG2B, MAB10651); assay: SPR Biacore T200; anti-adiponectin antibody 100 µg/mL fed over protein A/G held on the first antibody (Example 2)
[28] = target: anti-CRP antibody (R&D Systems, Inc., Human C-Reactive protein Antibody, Monoclonal Mouse IgG2B, MAB17071-500); assay: SPR Biacore T200; anti-CRP antibody 100 µg/mL fed over protein A/G held on anti-biotin antibody (Example 13)

- Amount of second antibody immobilized [1]: 2800 RU
- amount of the protein A/G immobilized [2]: 890 RU
- amount of the protein A/G immobilized [3]: 716 RU
- amount of the protein A/G immobilized [4]: 558 RU
- amount of protein A/G immobilized [5]: 497 RU
- Amount of second antibody immobilized [6]: 3450 RU
- amount of the protein A/G immobilized [7]: 622 RU
- amount of the protein A/G immobilized [8]: 828 RU
- amount of the protein A/G immobilized [9]: 602 RU
- amount of the protein A/G immobilized [10]: 890 RU
- Amount of second antibody immobilized [11]: 1620 RU
- amount of the protein A/G immobilized [12]: 637 RU
- Amount of second antibody immobilized [13]: 2330 RU
- amount of the protein A/G immobilized [14]: 884 RU
- amount of the protein A/G immobilized [15]: 685 RU
- Amount of second antibody immobilized [16]: 3400 RU
- Amount of second antibody immobilized [17]: 1560 RU
- amount of the protein A/G immobilized [18]: 507 RU
- Amount of second antibody immobilized [19]: 2300 RU
- amount of the protein A/G immobilized [20]: 718 RU
- amount of the protein A/G immobilized [21]: 603 RU
- Amount of second antibody immobilized [22]: 2840 RU
- Amount of second antibody immobilized [23]: 2680 RU
- Amount of second antibody immobilized [24]: 1610 RU
- Amount of second antibody immobilized [25]: 1100 RU
- Amount of second antibody immobilized [26]: 2820 RU
- Amount of second antibody immobilized [27]: 935 RU
- Amount of second antibody immobilized [28]: 2890 RU
Substance: protein A/G (Pierce 21186, Recombinant Protein A/G from E. coli, six domains)

Reference: patent publication US20190162720A1
